The values that follow come from paper PMC10599278.

The conditions of this data set: ubiquitination at K213.

Turning to IGF2BP3: K213R, the other entry was “decreases”.
